Holding throughout (assay): cell-based or functional assay
Assay [1] addresses Chryseobacterium culicis deamidase polypeptide, wildtype, with His-tag (Chryseobacterium culicis).
Assay [2] deals with T1, Chryseobacterium gambrini deamidase polypeptide, wildtype, with His-tag (Chryseobacterium gambrini).
T1 sequence: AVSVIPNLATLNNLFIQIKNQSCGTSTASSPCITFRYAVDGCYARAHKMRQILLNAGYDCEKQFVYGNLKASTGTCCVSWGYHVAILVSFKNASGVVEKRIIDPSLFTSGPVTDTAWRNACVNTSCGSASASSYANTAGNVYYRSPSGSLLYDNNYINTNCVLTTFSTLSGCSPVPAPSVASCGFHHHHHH

Assay [3] concerns the target T2, Chryseobacterium gambrini deamidase polypeptide, wildtype, with His-tag (Chryseobacterium gambrini).
T2 chain: T1 sequence

In assay [4] the target is T3, Chryseobacterium sp-62563 deamidase C169S (Chryseobacterium sp-62563).
T3 sequence: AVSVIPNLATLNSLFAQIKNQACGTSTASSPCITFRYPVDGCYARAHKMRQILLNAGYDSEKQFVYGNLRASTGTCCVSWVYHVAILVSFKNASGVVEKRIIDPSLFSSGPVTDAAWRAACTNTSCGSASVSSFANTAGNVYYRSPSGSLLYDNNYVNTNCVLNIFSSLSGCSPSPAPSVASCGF

For assay [5], the target named is T4, Chryseobacterium sp-62563 deamidase C230H (Chryseobacterium sp-62563).
T4 sequence: T3 sequence with S60C, C121H

Assay [6] concerns the target T5, Chryseobacterium sp-62563 deamidase polypeptide (second polypeptide, deamidase domain), wildtype (Chryseobacterium sp-62563).
T5 sequence: T3 sequence with S60C

Assay [7] has as its target T6, Chryseobacterium culicis deamidase polypeptide, wildtype, with His-tag (Chryseobacterium culicis).
T6 chain: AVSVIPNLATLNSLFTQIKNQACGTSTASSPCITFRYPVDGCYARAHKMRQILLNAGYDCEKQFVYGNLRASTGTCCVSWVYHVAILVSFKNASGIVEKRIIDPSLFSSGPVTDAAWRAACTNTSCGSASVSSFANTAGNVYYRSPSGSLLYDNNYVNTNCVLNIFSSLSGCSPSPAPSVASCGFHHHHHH

For assay [8], the target named is T7, Chryseobacterium proteolyticum deamidase polypeptide, wildtype, with His-tag (Chryseobacterium proteolyticum) (UniProt Q9AQQ8).
T7 sequence: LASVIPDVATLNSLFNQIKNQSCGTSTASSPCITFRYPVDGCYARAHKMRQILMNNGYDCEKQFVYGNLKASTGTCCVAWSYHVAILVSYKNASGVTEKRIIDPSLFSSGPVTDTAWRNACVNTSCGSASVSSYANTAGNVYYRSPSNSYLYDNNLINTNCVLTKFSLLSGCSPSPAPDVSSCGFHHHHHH

Assay [9] concerns the target T8, Chryseobacterium defluvii deamidase polypeptide, wildtype, with His-tag (Chryseobacterium defluvii).
T8 sequence: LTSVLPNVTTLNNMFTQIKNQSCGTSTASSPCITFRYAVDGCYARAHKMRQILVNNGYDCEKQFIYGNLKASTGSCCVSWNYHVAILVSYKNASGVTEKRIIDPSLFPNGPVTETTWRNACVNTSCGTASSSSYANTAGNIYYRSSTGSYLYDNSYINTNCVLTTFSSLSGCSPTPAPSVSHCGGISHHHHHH

The target in assay [10] is T9, Chryseobacterium defluvii deamidase polypeptide, wildtype, with His-tag (Chryseobacterium defluvii).
T9 chain: T8 sequence

Where a chain is given by its changes, count along the chain named. Numbers in names are those of the source. Like-named read-outs stand apart in the source and are kept apart here.

“Chryseobacterium culicis propeptide F38C” yielded a NanoDSF thermal unfolding temperature in assay [1] of 79.5 ° C.
“Chryseobacterium culicis propeptide F99K + N100T + E103V + R104K + G105E + D106E + S107N + K108R”: in assay [1], the Leakage activity is 3%.
In the case of “Chryseobacterium culicis propeptide Y94P”, in assay [1], the NanoDSF thermal unfolding temperature was 82.3 ° C.

B1: Chryseobacterium gambrini propeptide I23S (protein)
chain: NQDPNLVVKENNENAMRDFGSTSPVGIQKEGNVLKVSFIISAQFYEIKDSKENEAFISMIKSAIENETPVHVFLKKNSNEIAKVEKATDEDVTYFKSIFTKEVKEENRK
B1 had a NanoDSF thermal unfolding temperature in [2] of 77.2 ° C.

B2: Chryseobacterium gambrini propeptide F99G (protein)
chain: B1 chain with S23I, F99G
B2 gave a NanoDSF thermal unfolding temperature in assay [2] of 69.3 ° C.

B3: Chryseobacterium gambrini propeptide Y94P (protein)
chain: B1 chain with S23I, Y94P
B3 came in with a NanoDSF thermal unfolding temperature in assay [2] of 81.1 ° C.

B4: Chryseobacterium gambrini propeptide F38C (protein)
chain: B1 chain with S23I, F38C
Regarding B4, the NanoDSF thermal unfolding temperature in assay [2] came out at 82.3 ° C.

B5: Chryseobacterium gambrini propeptide F99K (protein)
chain: B1 chain with S23I, F99K
The molecule B5 registered a NanoDSF thermal unfolding temperature in assay [2] of 78.4 ° C.

B6: Chryseobacterium gambrini propeptide Y45T (protein)
chain: B1 chain with S23I, Y45T
As to B6, the NanoDSF thermal unfolding temperature in assay [2] came to 79.3 ° C.

B7: Chryseobacterium gambrini propeptide, wildtype (other)
chain: B1 chain with S23I
As to B7, the “NanoDSF thermal unfolding temperature” value in [3] turned out to be 89.3 ° C.

B8: Chryseobacterium gambrini propeptide F99A (protein)
chain: B1 chain with S23I, F99A
In the case of B8, the NanoDSF thermal unfolding temperature in assay [2] came to 70.4 ° C.

B9: Chryseobacterium sp-62563 propeptide F99G (protein)
chain: NQDPNLVAKESNETAMKDFGKTVPVGIEKEDGKFKISFMVTAQPYEIKDSKENAAYISMIKTAVENETPIHVFLKANTNEIAKVDKATDDDIRYFKSVGTKEVKEENRK
In the case of B9, the Leakage activity in assay [4] is 3%; in assay [5], 0%; in assay [6], 9%. In addition, the Relative activity of maturated deamidase (% initial rate) in assay [4] and in assay [6] was above 100 in each case. For the same molecule, the NanoDSF thermal unfolding temperature in [6] was 74.1 ° C.

B10: Chryseobacterium sp-62563 propeptide T14P (protein)
chain: B9 chain with T14P, G99F
For the molecule B10, the Leakage activity in [6] came to 0%.

B11: Chryseobacterium sp-62563 propeptide E13C (protein)
chain: B9 chain with E13C, G99F
B11: the Leakage activity in assay [6] was 0%.

B12: Chryseobacterium sp-62563 propeptide T100E (protein)
chain: B9 chain with G99F, T100E
As for B12, the Relative activity of maturated deamidase (% initial rate) in assay [6] is 75.

B13: Chryseobacterium sp-62563 propeptide K101E (protein)
chain: B9 chain with G99F, K101E
Take B13: the Relative activity of maturated deamidase (% initial rate) in [6] was determined as 45.

B14: Chryseobacterium sp-62563 propeptide K109C (protein)
chain: B9 chain with G99F, K109C
As for B14, in assay [6], the Leakage activity was found to be 0%.

B15: Chryseobacterium sp-62563 propeptide E10P (protein)
chain: B9 chain with E10P, G99F
In the case of B15, in [6], the Leakage activity came out at 0%.

B16: Chryseobacterium sp-62563 propeptide R108N (protein)
chain: B9 chain with G99F, R108N
With B16, the Leakage activity in assay [6] turned out to be 0%.

B17: Chryseobacterium sp-62563 propeptide K101I (protein)
chain: B9 chain with G99F, K101I
Molecule B17 yielded a Relative activity of maturated deamidase (% initial rate) in [6] of 38.

B18: Chryseobacterium sp-62563 propeptide T100Q (protein)
chain: B9 chain with G99F, T100Q
In assay [6], B18 displayed a Relative activity of maturated deamidase (% initial rate) of 79.

B19: Chryseobacterium sp-62563 propeptide K101D (protein)
chain: B9 chain with G99F, K101D
The molecule B19 gave a Relative activity of maturated deamidase (% initial rate) in [6] of 46.

B20: Chryseobacterium sp-62563 propeptide K101A (protein)
chain: B9 chain with G99F, K101A
B20 had a Relative activity of maturated deamidase (% initial rate) in assay [6] of 36.

B21: Chryseobacterium sp-62563 propeptide G20D (protein)
chain: B9 chain with G20D, G99F
B21: in [6], the Leakage activity amounted to 0%.

B22: Chryseobacterium sp-62563 propeptide K101G (protein)
chain: B9 chain with G99F, K101G
Turning to B22, the Relative activity of maturated deamidase (% initial rate) in assay [6] was 34.

B23: Chryseobacterium sp-62563 propeptide K101C (protein)
chain: B9 chain with G99F, K101C
For B23, the Relative activity of maturated deamidase (% initial rate) in assay [6] is 38.

B24: Chryseobacterium culicis propeptide, wildtype (other)
chain: NQDPNLVAKESNEIAMKDFGKTVPVGIEKEEGKFKVSFMVSAQPYHIKDSKENAGYISMIRQAVENETPVHIFLKTNTNEIAKVDKPTDDDIRYFKSVFTKEVKEENRK
For B24, the “NanoDSF thermal unfolding temperature” value in [7] stood at 85.2 ° C.

B25: Chryseobacterium proteolyticum propeptide L100A (protein)
chain: NQEINGKEKLSVNDSKLKDFGKTVPVGIDEENGMIKVSFMLTAQFYEIKPTKENEQYIGMLRQAVKNESPVHIFLKPNSNEIGKVESASPEDVRYFKTIATKEVKEENRK
Consider B25, for which, in assay [8], the NanoDSF thermal unfolding temperature is 80 ° C.

B26: Chryseobacterium proteolyticum propeptide L100G (protein)
chain: B25 chain with A100G
B26 yielded a NanoDSF thermal unfolding temperature in assay [8] of 77.3 ° C.

B27: Chryseobacterium defluvii propeptide Y47T (protein)
chain: ATNQDVVGKENTSNHVAARDFGKTVPVGINEENGTLKVSFILSAQFTEIKPSKENEEYISLIRQAIQNESPIHVFMKLNSNEIVKVEKGTEEDVKYFRSILTKEVKEENRK
As to B27, in assay [9], the NanoDSF thermal unfolding temperature came to 80.4 ° C.

B28: Chryseobacterium defluvii propeptide, wildtype (other)
chain: B27 chain with T47Y
For the molecule B28, in [10], the “NanoDSF thermal unfolding temperature” value was determined as 89 ° C.

B29: Chryseobacterium defluvii propeptide L101A (protein)
chain: B27 chain with T47Y, L101A
Regarding B29, the NanoDSF thermal unfolding temperature in assay [9] was found to be 82 ° C.

B30: Chryseobacterium defluvii propeptide L101G (protein)
chain: B27 chain with T47Y, L101G
B30 registered a NanoDSF thermal unfolding temperature in assay [9] of 79.8 ° C.

B31: Chryseobacterium defluvii propeptide L101K (protein)
chain: B27 chain with T47Y, L101K
In turn, B31 displayed a NanoDSF thermal unfolding temperature in [9] of 80.5 ° C.

The values are drawn from US20250215412A1 (NOVOZYMES A S, published 2025).
